In patent publication US9266964:
Where a chain is given by its changes, count along the chain named.

B1: M197-A01 (Fab, V domains shown)
VH: EVQLLESGGGLVQPGGSLRLSCAASGFTFSIYDMIWVRQAPGKGLEWVSSIYPSGGNTSYADSVKGRFTISRDNSKNTLYLQMNSLRAEDTAVYYCAYRRTGIPRRDAFDIWGQGTMVTVSS
VL: DIQMTQSPSTLSASVGDRVTITCRASQSISSWLAWYQQKPGKAPNLLIYKASTLESGVPSRFSGSGSGTEFTLTISSLQPDDFATYYCQQYNTYWTFGQGTKVEIK
B2: M195-B02 (Fab, V domains shown)
VH: B1 VH with I31P, D33L, I35W, S50Y, Y52G, N57P, S59H
VL: B1 VL
B3: M198-H08 (Fab, V domains shown)
VH: B1 VH with I35Y, Y52G, N57P, S59A
VL: B1 VL
B4: M197-H10 (Fab, V domains shown)
VH: B1 VH with I31S, D33N, I35H, Y52V, N57K, S59N
VL: B1 VL
B5: M202-A01 (Fab, V domains shown)
VH: B1 VH with I31H, D33I, I35M, S50G, P53S, N57I, S59V, T101I, I103V
VL: B1 VL
B6: M202-B04 (Fab, V domains shown)
VH: B1 VH with I31H, D33I, I35M, S50G, P53S, N57I, S59V, T101S, I103V, A108D
VL: B1 VL
B7: M198-F08 (Fab, V domains shown)
VH: B1 VH with I31V, D33S, I35W, Y52S, P53S, N57M, S59E
VL: B1 VL
B8: M197-F03 (Fab, V domains shown)
VH: B1 VH with D33S, I35F, Y52G, N57V, S59H
VL: B1 VL
B9: M197-A08 (Fab, V domains shown)
VH: B1 VH with D33S, I35Q, Y52G, P53S, N57K, S59L
VL: B1 VL
B10: M196-H03 (Fab, V domains shown)
VH: EVQLLESGGGLVQPGGSLRLSCAASGFTFSRYVMWWVRQAPGKGLEWVSSISPSGDTHYADSVKGRFTISRDNSKNTLYLQMNSLRAEDTAVYYCAYRRTGIPRRDAFDIWGQGTMVTVSS
VL: B1 VL
B11: M202-E06 (Fab, V domains shown)
VH: B1 VH with I31H, D33I, I35M, S50G, P53S, N57I, S59V, T101R, I103V, A108D
VL: B1 VL
B12: M198-C05 (Fab, V domains shown)
VH: B1 VH with I31R, D33K, I35Y, S50V, Y52G, N57A, S59F
VL: B1 VL
B13: M195-B12 (Fab, V domains shown)
VH: B1 VH with I31K, D33W, I35Y, S50Y, Y52R, N57Q, S59Y
VL: B1 VL
B14: M198-B09 (Fab, V domains shown)
VH: B1 VH with I31V, D33S, I35T, Y52G, P53S, N57S, S59T
VL: B1 VL
B15: M195-D12 (Fab, V domains shown)
VH: B1 VH with D33G, I35F, S50G, Y52G, N57P, S59K
VL: B1 VL
B16: M201-H06 (Fab, V domains shown)
VH: B1 VH with I31H, D33I, I35M, S50G, P53S, N57I, S59V, I103V
VL: B1 VL
B17: M198-A02 (Fab, V domains shown)
VH: B1 VH with I31R, D33S, Y52W, P53S, N57A, S59E
VL: B1 VL
B18: M198-C10 (Fab, V domains shown)
VH: EVQLLESGGGLVQPGGSLRLSCAASGFTFSHYMGMNWVRQAPGKGLEWVSSIVPSGGWTQYADSVKGRFTISRDNSKNTLYLQMNSLRAEDTAVYYCAYRRTGIPRRDAFDIWGQGTMVTVSS
VL: B1 VL
B19: M198-G07 (Fab, V domains shown)
VH: B1 VH with I35T, N57Q, S59I
VL: B1 VL
B20: M195-C12 (Fab, V domains shown)
VH: B10 VH with R31M, V33Q, W35F, S54G, D56G, H58Q
VL: B1 VL
B21: M197-H11 (Fab, V domains shown)
VH: B1 VH with D33N, N57W, S59T
VL: B1 VL
B22: M198-A09 (Fab, V domains shown)
VH: B1 VH with D33F, I35S, Y52R, P53S, N57P, S59W
VL: B1 VL
B23: M198-H02 (Fab, V domains shown)
VH: B10 VH with R31P, V33N, W35Y, S50W, S52V, S54G, D56V, H58K
VL: B1 VL
B24: M200-H07 (Fab, V domains shown)
VH: B1 VH with I31H, D33I, I35M, S50G, P53S, N57I, S59V, I103V, D107N, I111N
VL: B1 VL
B25: M198-F04 (Fab, V domains shown)
VH: B1 VH with I35W, Y52R, N57I, S59K
VL: B1 VL
B26: M197-E12 (Fab, V domains shown)
VH: B1 VH with I31T, D33T, I35R, N57K, S59Q
VL: B1 VL
B27: M200-E11 (Fab, V domains shown)
VH: B1 VH with I31H, D33I, I35M, S50G, P53S, N57I, S59V, I103V, I111N
VL: B1 VL
B28: M202-G03 (Fab, V domains shown)
VH: EVQLLESGGGLVQPGGSLRLSCAASGFTFSHYIMMWVRQAPGKGLEWVSGIYSSGGITVYADSVKGRFTISRDNSKNTLYLQMNSLRAEDTAVYYCAFRRTGVPRRDSFEIWGQGTMVTVSS
VL: B1 VL
B29: M198-E11 (Fab, V domains shown)
VH: B1 VH with I31T, D33S, I35Y, N57L, S59W
VL: B1 VL
B30: M198-B12 (Fab, V domains shown)
VH: B1 VH with I31K, D33S, I35A, S50G, N57R, S59L
VL: B1 VL
B31: M202-H05 (Fab, V domains shown)
VH: B28 VH with S108V, E110D
VL: B1 VL
B32: M198-E09 (Fab, V domains shown)
VH: B1 VH with I35N, N57R, S59R
VL: B1 VL
B33: M198-F12 (Fab, V domains shown)
VH: B1 VH with D33T, I35M, Y52W, P53S, N57Q, S59K
VL: B1 VL
B34: M198-A07 (Fab, V domains shown)
VH: B1 VH with I31R, D33Q, I35H, S50W, Y52S, N57I, S59G
VL: B1 VL
B35: M202-A04 (Fab, V domains shown)
VH: B28 VH with F98Y, T101K, V103I, S108D, E110D
VL: B1 VL
B36: M198-E02 (Fab, V domains shown)
VH: B1 VH with D33S, I35Y, S50Y, Y52R, S59K
VL: B1 VL
B37: M202-F06 (Fab, V domains shown)
VH: B28 VH with F98Y, R106W, S108A, E110D
VL: B1 VL
B38: M198-C06 (Fab, V domains shown)
VH: B1 VH with I31Q, D33F, I35H, S50Y, N57M, S59E
VL: B1 VL
B39: M198-C09 (Fab, V domains shown)
VH: B1 VH with D33T, I35Y, Y52S, N57W, S59Y
VL: B1 VL
B40: M197-F01 (Fab, V domains shown)
VH: B1 VH with D33H, I35Y, Y52G, N57P, S59G
VL: B1 VL

Target: human plasma kallikrein (human, UniProt P03952 20-390; P03952 391-638)
Assay: cell-based or functional assay

Chain of human plasma kallikrein (P03952 20-390, chain 1 of 2): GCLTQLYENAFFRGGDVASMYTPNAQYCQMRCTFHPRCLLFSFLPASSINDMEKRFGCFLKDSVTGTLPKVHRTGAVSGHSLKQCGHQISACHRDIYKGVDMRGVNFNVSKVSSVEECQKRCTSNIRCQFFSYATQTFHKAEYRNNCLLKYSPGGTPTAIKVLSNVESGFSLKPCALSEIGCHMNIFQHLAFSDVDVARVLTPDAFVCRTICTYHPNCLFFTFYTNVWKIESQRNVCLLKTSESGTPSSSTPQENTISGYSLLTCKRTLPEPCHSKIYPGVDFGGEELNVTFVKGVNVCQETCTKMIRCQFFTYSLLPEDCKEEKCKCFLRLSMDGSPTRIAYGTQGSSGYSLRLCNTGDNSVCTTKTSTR
Chain of human plasma kallikrein (P03952 391-638, chain 2 of 2): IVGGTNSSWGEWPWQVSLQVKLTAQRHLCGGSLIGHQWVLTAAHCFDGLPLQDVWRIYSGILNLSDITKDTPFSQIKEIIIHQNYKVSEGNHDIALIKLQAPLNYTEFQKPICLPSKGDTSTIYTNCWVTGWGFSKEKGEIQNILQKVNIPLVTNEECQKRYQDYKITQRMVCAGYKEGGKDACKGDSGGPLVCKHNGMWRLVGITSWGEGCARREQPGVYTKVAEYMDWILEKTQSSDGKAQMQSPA

Row | Binder | % inhibition at 10 nM [%]
1 | B1 | 95.3
2 | B2 | 75.1
3 | B3 | 92.3
4 | B4 | 94.1
5 | B5 | 88.9
6 | B6 | 81.9
7 | B7 | 91.8
8 | B8 | 90.7
9 | B9 | 93.7
10 | B10 | 83.9
11 | B11 | 91.5
12 | B12 | 83.9
13 | B13 | 87.7
14 | B14 | 93.5
15 | B15 | 90.8
16 | B16 | 84.6
17 | B17 | 89.1
18 | B18 | 93
19 | B19 | 94.9
20 | B20 | 84.2

Row | Binder | % inhibition at 10 nM [%]
21 | B21 | 92.9
22 | B22 | 77.3
23 | B23 | 85.8
24 | B24 | 85.4
25 | B25 | 92.9
26 | B26 | 93
27 | B27 | 83.2
28 | B28 | 88.3
29 | B29 | 92.5
30 | B30 | 80.7
31 | B31 | 84
32 | B32 | 93.1
33 | B33 | 74.6
34 | B34 | 86.1
35 | B35 | 81.2
36 | B36 | 90.3
37 | B37 | 84.2
38 | B38 | 76.5
39 | B39 | 75.4
40 | B40 | 92.6
